We go through two substances from patent publication US20100215682A1.

In test [1] the target is HBsAg-gp120 hybrid virus-like particles, gp120 89.6 with loop C deletion (424-432 …, beta 20-21 loop) (hepatitis B virus; HIV-1 strain 89.6). The test is described as follows: ELISA, gp120-HBsAg particles coated on the plate. A general note: An ELISA detects its analyte on a solid surface through an enzyme-linked reagent.
Test [2] has the same target. The test is described as follows: ELISA, half maximal binding compared, gp120-HBsAg particles coated on the plate.
For test [3] the target is unchanged. The test is described as follows: ELISA, gp120-HBsAg particles coated on the plate; mean of six experiments.

monoclonal F105 (antibody) showed a fold increase of binding against 89.6 wild type in test [1] of more than 10 fold. Also, the shift in apparent affinity relative to 89.6 wild type in test [2] is more than 100 fold. This substance also came in with a fold increase of ELISA peak OD against 89.6 wild type in test [3] of 7.1 fold.

In test [1], monoclonal IgG1 b12 (antibody) displayed a fold increase of binding against 89.6 wild type of 3 fold and a peak OD as percent of the IIIB value (% of the IIIB value) of 80 to 100. The same substance showed a fold increase of ELISA peak OD against 89.6 wild type in test [3] of 2.6 fold.
